Source: patent US20130089499A1 (NATIONAL RESEARCH COUNCIL OF CANADA, published 2013)

Assays:
human myostatin (GDF8) = human myostatin (GDF8) (human, UniProt O14793 267-375); assay: cell-based or functional assay
TGF-β1 or -β3 = assay: SPR (Biacore) solution competition: binder pre-incubated with 5 nM TGF-β (β1 or β3, isoform not named on the sheet), injected over immobilised 1D11 anti-TGF-β antibody; plateau response measures free TGF-β
TGF-β1 [1] = target: T1, TGF-β1 (UniProt P01137 279-390); assay: cell-based or functional assay
TGF-β1 [2] = target: T1, TGF-β1; assay: SPR (Biacore) solution competition: trap coinjected with 5 nM TGF-β1 over immobilised 1D11 anti-TGF-β antibody; plateau response measures free TGF-β1
TGF-β1 [3] = target: T1, TGF-β1; assay: SPR indirect binding assay: binder titrated against 5 nM TGF-β1, free TGF-β1 measured on the 1D11 surface
Experimental: (§1) SPR data was generated using a Biacore 3000 instrument (G.E. Healthcare Inc.) using HBS as running buffer. […] A twenty-fold stock concentration of TGF-β (100 nM in 10 mM acetic acid) was used. […] Blank injection samples were made from 10 μl 10 mM acetic acid mixed with 190 uL HBS. […] All sensogram analysis was carried out using Biacore BiaEvaluation software v4.1 (G.E. Healthcare Inc.).

TGF-β1 [4] = target: T1, TGF-β1; assay: SPR (Biacore) solution competition: binder pre-incubated with 5 nM TGF-β1, injected over immobilised 1D11 anti-TGF-β antibody; plateau response measures free TGF-β1
Experimental: as §1

TGF-β2 = target: T2, TGF-β2 (UniProt P61812 303-414); assay: SPR (Biacore), 100 nM injected over immobilised TGF-β2
T2 sequence (looked up): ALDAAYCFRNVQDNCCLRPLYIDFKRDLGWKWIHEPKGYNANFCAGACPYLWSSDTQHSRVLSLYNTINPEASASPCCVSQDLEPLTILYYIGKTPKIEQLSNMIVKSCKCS

Work on ActRIIB monomer (receptor) yielded an IC50, neutralization of myostatin in A204 cells with (CAGA)12-luciferase reporter (human myostatin (GDF8)) of 380 pM.

B1: Prototype (TβRII)^2 (designed binder)
chain: TIPPEQKLISEEDLLHVQKSVNNDMIVTDNNGAVKFPQLCKFCDVRFSTCDNQKSCMSNCSITSICEKPQEVCVAVWRKNDENITLETVCHDPKLPYHDFILEDAASPKCIMKEKKKPGETFFMCSCSSDECNDNIIFSEEYNTSNPDGGRHVQKSVNNDMIVTDNNGAVKFPQLCKFCDVRFSTCDNQKSCMSNCSITSICEKPQEVCVAVWRKNDENITLETVCHDPKLPYHDFILEDAASPKCIMKEKKKPGETFFMCSCSSDECNDNIIFSEEYNTSNPDHHHHHH
With B1 the IC50 (TGF-β1 or -β3) was 7600 pM and the “IC50, inhibition of TGF-β signaling in Mv1Lu luciferase reporter cells” value (TGF-β1 [1]) was 580 pM.

B2: N-His (TβRIIb)^2 (designed binder)
chain: APMAEGGGQNHHHHHHHHGGSFNPRIPPHVQKSVNNDMIVTDNNGAVKFPQLCKFCDVRFSTCDNQKSCMSNCSITSICEKPQEVCVAVWRKNDENITLETVCHDPKLPYHDFILEDAASPKCIMKEKKKPGETFFMCSCSSDECNDNIIFSEEYNTSNPDIPPHVQKSDVEMEAQKDEIICPSCNRTAHPLRHINNDMIVTDNNGAVKFPQLCKFCDVRFSTCDNQKSCMSNCSITSICEKPQEVCVAVWRKNDENITLETVCHDPKLPYHDFILEDAASPKCIMKEKKKPGETFFMCSCSSDECNDNIIFSEEYNTSNPD
notes: TβRII ectodomain followed by a TβRIIb ectodomain, giving a 60-residue linker, with an N-terminal His tag; also called (TβRII)^2 trap having a 60 amino acid linker
In the case of B2, the “IC50, neutralization of TGFβ1 (Mv1Lu luciferase reporter cells)” value (TGF-β1 [1]) is reported as 40 pM, the “fold more potent than N-His (TβRII)^2 in neutralization of TGFβ1” value (TGF-β1 [1]) is reported as 4 fold and the IC50 (TGF-β1 [2]) is reported as 600 pM.

B3: N-His (TβRII)^2 (designed binder)
chain: APMAEGGGQNHHHHHHHHGGSFNPRIPPHVQKSVNNDMIVTDNNGAVKFPQLCKFCDVRFSTCDNQKSCMSNCSITSICEKPQEVCVAVWRKNDENITLETVCHDPKLPYHDFILEDAASPKCIMKEKKKPGETFFMCSCSSDECNDNIIFSEEYNTSNPDIPPHVQKSVNNDMIVTDNNGAVKFPQLCKFCDVRFSTCDNQKSCMSNCSITSICEKPQEVCVAVWRKNDENITLETVCHDPKLPYHDFILEDAASPKCIMKEKKKPGETFFMCSCSSDECNDNIIFSEEYNTSNPD
notes: Two human TβRII ectodomains in tandem with the native 35-residue linker (IPP restored), an N-terminal 8xHis tag and a thrombin site; also called modified N-His (TβRII)^2; bivalent N-His (TβRII)^2
B3 was tested, and the IC50 (TGF-β1 [3]) was 1100 pM, the “IC50, neutralization assay in Mv1Lu luciferase reporter cells” value (TGF-β1 [1]) was < 1000 pM and the “IC50, neutralization of TGFβ1 (Mv1Lu luciferase reporter cells)” value (TGF-β1 [1]) was 160 pM. For the same molecule, the IC50 (TGF-β1 [2]) was 1400 pM.

B4: (ActRIIB)^2 (designed binder)
chain: SGSEQKLISEEDLLGRGEAETRECIYYNANWELERTNQSGLERCEGEQDKRLHCYASWRNSSGTIELVKKGCWLDDFNCYDRQECVATEENPQVYFCCCEGNFCNERFTHLPEAGGPEVTYEPPPTAPTSGRGEAETRECIYYNANWELERTNQSGLERCEGEQDKRLHCYASWRNSSGTIELVKKGCWLDDFNCYDRQECVATEENPQVYFCCCEGNFCNERFTHLPEAGGPEVTYEPPPTAPTHHHHHH
B4 was tested, and the “IC50, neutralization of myostatin in A204 cells with (CAGA)12-luciferase reporter” value (human myostatin (GDF8)) was 100 pM and the “fold more potent than dimeric ActRIIb-Fc in neutralization of myostatin” value (human myostatin (GDF8)) was 10 fold.

B5: N-His TβRII monomer (receptor)
chain: APMAEGGGQNHHHHHHHHGGSFNPRIPPHVQKSVNNDMIVTDNNGAVKFPQLCKFCDVRFSTCDNQKSCMSNCSITSICEKPQEVCVAVWRKNDENITLETVCHDPKLPYHDFILEDAASPKCIMKEKKKPGETFFMCSCSSDECNDNIIFSEEYNTSNPD
notes: Single TβRII ectodomain with an N-terminal His tag, produced in 293 cells; also called monomeric N-His TβRII; N-His TβRII (293 cells)
For B5, the “fold higher IC50 than N-His (TβRII)^2” value (TGF-β1 [3]) was ~8 fold, the IC50 (TGF-β1 [4]) was 8100 pM and the binding result (TGF-β2) was “no binding (tested: 100 nM)”.
